Patent US20220003784A1 (ASSISTANCE PUBLIQUE H PITAUX DE MARSEILLE, published 2022)

T1: Human long CD146 protein
T1 chain: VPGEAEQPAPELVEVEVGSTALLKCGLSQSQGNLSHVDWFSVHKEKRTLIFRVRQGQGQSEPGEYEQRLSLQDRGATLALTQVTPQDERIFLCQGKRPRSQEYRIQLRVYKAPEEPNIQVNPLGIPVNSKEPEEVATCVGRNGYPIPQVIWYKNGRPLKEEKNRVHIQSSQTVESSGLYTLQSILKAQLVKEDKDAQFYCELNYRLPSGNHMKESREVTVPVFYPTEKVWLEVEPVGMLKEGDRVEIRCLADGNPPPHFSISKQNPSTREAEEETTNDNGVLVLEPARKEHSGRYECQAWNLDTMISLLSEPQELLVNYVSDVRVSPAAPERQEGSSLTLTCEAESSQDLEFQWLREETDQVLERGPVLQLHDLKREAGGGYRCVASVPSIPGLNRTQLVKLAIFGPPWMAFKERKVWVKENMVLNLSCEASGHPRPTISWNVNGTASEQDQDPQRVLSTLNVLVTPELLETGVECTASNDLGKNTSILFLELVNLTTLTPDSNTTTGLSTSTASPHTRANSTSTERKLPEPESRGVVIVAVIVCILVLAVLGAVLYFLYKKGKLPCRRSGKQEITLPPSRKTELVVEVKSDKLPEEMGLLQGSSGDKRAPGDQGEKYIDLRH

T2: ADAM10 (UniProt O14672 214-748, limits assumed)
T2 construct: Endogenous protein of ECFC endothelial cells
T2 sequence (looked up): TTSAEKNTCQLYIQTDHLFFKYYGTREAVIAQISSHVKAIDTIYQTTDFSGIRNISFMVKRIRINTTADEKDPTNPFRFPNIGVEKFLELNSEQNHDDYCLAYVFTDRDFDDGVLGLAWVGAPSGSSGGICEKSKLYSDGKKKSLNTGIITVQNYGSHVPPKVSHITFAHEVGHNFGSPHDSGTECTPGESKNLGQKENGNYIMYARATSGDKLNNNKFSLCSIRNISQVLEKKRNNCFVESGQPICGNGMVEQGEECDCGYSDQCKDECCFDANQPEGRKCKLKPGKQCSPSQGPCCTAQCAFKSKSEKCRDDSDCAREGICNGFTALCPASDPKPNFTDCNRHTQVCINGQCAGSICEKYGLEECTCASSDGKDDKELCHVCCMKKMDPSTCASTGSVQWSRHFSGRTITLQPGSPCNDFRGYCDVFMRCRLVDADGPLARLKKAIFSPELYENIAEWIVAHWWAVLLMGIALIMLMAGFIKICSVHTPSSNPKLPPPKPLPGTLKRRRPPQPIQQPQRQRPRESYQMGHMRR


What was measured:
Human long CD146 protein = target: T1, Human long CD146 protein
ADAM10 = target: T2, ADAM10; assay: co-immunoprecipitation from ECFC in control condition (ADAM10 immunoprecipitated, CD146 isoforms detected by western blot)
Description: C: ADAM10 was immunoprecipitated in ECFC cultured in basal condition (EBM2). The long (IgCD146) and short (shCD146) isoforms of CD146 were then detected by western blot using specific antibodies. Results are representative of 3 different experiments.

| binding result (ADAM10) | Binder | reduction of sCD146 secretion by ECFC under TNF after ADAM10 siRNA (Human long CD146 protein) | sCD146 secretion by ECFC in control condition after siRNA (Human long CD146 protein) | sCD146 secretion by a CHO clone stably expressing lgCD146 after transfection with an ADAM10 plasmid (Human long CD146 protein) |
| --- | --- | --- | --- | --- |
| – | ADAM10 (protein) TTSAEKNTCQLYIQTDHLFFKYYGTREAVIAQISSHVKAIDTIYQTTDFSGIRNISFMVKRIRINTTADEKDPTNPFRFPNIGVEKFLELNSEQNHDDYCLAYVFTDRDFDDGVLGLAWVGAPSGSSGGICEKSKLYSDGKKKSLNTGIITVQNYGSHVPPKVSHITFAHEVGHNFGSPHDSGTECTPGESKNLGQKENGNYIMYARATSGDKLNNNKFSLCSIRNISQVLEKKRNNCFVESGQPICGNGMVEQGEECDCGYSDQCKDECCFDANQPEGRKCKLKPGKQCSPSQGPCCTAQCAFKSKSEKCRDDSDCAREGICNGFTALCPASDPKPNFTDCNRHTQVCINGQCAGSICEKYGLEECTCASSDGKDDKELCHVCCMKKMDPSTCASTGSVQWSRHFSGRTITLQPGSPCNDFRGYCDVFMRCRLVDADGPLARLKKAIFSPELYENIAEWIVAHWWAVLLMGIALIMLMAGFIKICSVHTPSSNPKLPPPKPLPGTLKRRRPPQPIQQPQRQRPRESYQMGHMRR | ADAM10 and Tace siRNA reduced sCD146 secretion by 60% and 25%, respectively | only ADAM10 siRNA was able to inhibit sCD146 secretion and that the effect was similar to that of GM6001 | in the presence of ADAM10, sCD146 secretion was significantly increased |
| no binding | Human short CD146 protein (other, Endogenous membrane isoform in ECFC, detected by western blot in immunoprecipitates from cell lysates; also expressed from a plasmid in CHO cells; also called shCD146; short isoform of CD146) VPGEAEQPAPELVEVEVGSTALLKCGLSQSQGNLSHVDWFSVHKEKRTLIFRVRQGQGQSEPGEYEQRLSLQDRGATLALTQVTPQDERIFLCQGKRPRSQEYRIQLRVYKAPEEPNIQVNPLGIPVNSKEPEEVATCVGRNGYPIPQVIWYKNGRPLKEEKNRVHIQSSQTVESSGLYTLQSILKAQLVKEDKDAQFYCELNYRLPSGNHMKESREVTVPVFYPTEKVWLEVEPVGMLKEGDRVEIRCLADGNPPPHFSISKQNPSTREAEEETTNDNGVLVLEPARKEHSGRYECQAWNLDTMISLLSEPQELLVNYVSDVRVSPAAPERQEGSSLTLTCEAESSQDLEFQWLREETDQVLERGPVLQLHDLKREAGGGYRCVASVPSIPGLNRTQLVKLAIFGPPWMAFKERKVWVKENMVLNLSCEASGHPRPTISWNVNGTASEQDQDPQRVLSTLNVLVTPELLETGVECTASNDLGKNTSILFLELVNLTTLTPDSNTTTGLSTSTASPHTRANSTSTERKLPEPESRGVVIVAVIVCILVLAVLGAVLYFLYKKGKLPCRRSGKQEMERNTSI | – | – | – |
